In publication PMC6995580, “Thermal Inactivation of a Cold-Active Esterase PMGL3 Isolated from the Permafrost Metagenomic Library” (Biomolecules, 2019):

Legend:
[1] = tested on: T1, CCCC(=O)Oc1ccc([N+](=O)[O-])cc1; test: p-nitrophenol release, Lineweaver-Burk plot; assay type: biochemical, uncultured bacterium; settings: 50 mM Tris-HCl pH 8.0, 100 mM NaCl, 30 °C, 0.1-1.25 mM substrate
T1 construct: dimer ~70 kDa; residues Cys49 and Cys207
From the text: p-nitrophenol release, Lineweaver-Burk plot on PMGL3

[2] = target: PMGL3 mutant C49V (not stated (permafrost metagenomic library)); test: SEC; Superdex 75 10/300 GL, 0.4 mL/min, 100 mM Tris-HCl pH 8.0, 150 mM NaCl; sample after incubation for 1 h at 40 °C; column calibrated with 29-669 kDa standards
[3] = target: PMGL3 mutant C49V (not stated (permafrost metagenomic library)); test: SEC; Superdex 75 10/300 GL, 0.4 mL/min, 100 mM Tris-HCl pH 8.0, 150 mM NaCl; fresh sample before heating; column calibrated with 29-669 kDa standards
[4] = target: PMGL3 mutant C207F (not stated (permafrost metagenomic library)); test: SEC; Superdex 75 10/300 GL, 0.4 mL/min, 100 mM Tris-HCl pH 8.0, 150 mM NaCl; sample after incubation for 1 h at 40 °C; column calibrated with 29-669 kDa standards
[5] = target: PMGL3 mutant C207F (not stated (permafrost metagenomic library)); test: SEC; Superdex 75 10/300 GL, 0.4 mL/min, 100 mM Tris-HCl pH 8.0, 150 mM NaCl; fresh sample before heating; column calibrated with 29-669 kDa standards
[6] = target: cold-active esterase PMGL3 (wild type) (not stated (permafrost metagenomic library)); test: SEC; Superdex 75 10/300 GL, 0.4 mL/min, 100 mM Tris-HCl pH 8.0, 150 mM NaCl; sample after incubation for 1 h at 40 °C; column calibrated with 29-669 kDa standards
[7] = target: cold-active esterase PMGL3 (wild type) (not stated (permafrost metagenomic library)); test: SEC; Superdex 75 10/300 GL, 0.4 mL/min, 100 mM Tris-HCl pH 8.0, 150 mM NaCl; fresh sample before heating; column calibrated with 29-669 kDa standards

Substance | Km [1] | Vmax [1] | kcat [1] | kcat/Km [1] | other results
PMGL3 (unidentified) | 980 µM | 165000 µM/min/mg | 91.5 s⁻¹ | 93400 M⁻¹ s⁻¹ | –
PMGL3 (unidentified; C49V) | 1290 µM | 94700 µM/min/mg | 52.6 s⁻¹ | 40800 M⁻¹ s⁻¹ | –
PMGL3 (unidentified; C207F) | 170 µM | 94600 µM/min/mg | 52.5 s⁻¹ | 309000 M⁻¹ s⁻¹ | –
PMGL3 mutant C49V (enzyme) | – | – | – | – | stoichiometry N [2]: 4; stoichiometry N [3]: 2
PMGL3 mutant C207F (enzyme) | – | – | – | – | stoichiometry N [4]: 4; stoichiometry N [5]: 2
cold-active esterase PMGL3 (wild type) (enzyme) | – | – | – | – | stoichiometry N [6]: 4; stoichiometry N [7]: 2
